We go through five molecules from patent US20140087995A1 (published 2014).

Test [1] has as its target T1, rat calcitonin receptor (rat, UniProt P32214 25-516).
T1 construct: whole, on cells; Used as membranes prepared from the transfected cells; also called rCTR; rCT
T1 sequence (looked up): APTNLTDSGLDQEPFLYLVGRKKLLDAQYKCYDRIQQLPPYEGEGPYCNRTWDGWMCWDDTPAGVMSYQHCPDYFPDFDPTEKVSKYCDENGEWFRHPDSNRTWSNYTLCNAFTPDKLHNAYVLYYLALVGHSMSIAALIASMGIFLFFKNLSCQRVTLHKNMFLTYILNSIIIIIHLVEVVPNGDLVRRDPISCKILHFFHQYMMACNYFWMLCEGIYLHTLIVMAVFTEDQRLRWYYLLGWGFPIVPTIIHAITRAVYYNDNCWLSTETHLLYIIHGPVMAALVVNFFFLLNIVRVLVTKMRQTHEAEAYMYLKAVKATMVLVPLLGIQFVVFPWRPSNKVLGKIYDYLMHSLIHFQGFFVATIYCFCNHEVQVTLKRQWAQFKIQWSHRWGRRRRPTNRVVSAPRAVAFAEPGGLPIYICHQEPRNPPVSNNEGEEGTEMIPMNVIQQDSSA
The test can be described thus: SPA competition with 125I-calcitonin, membranes with rat calcitonin receptor (Assay VIII).

Test [2] has as its target T1, rat calcitonin receptor. The test can be described thus: ratio of binding IC50 at rat calcitonin receptor to IC50 at rat amylin receptor (reference).
Test [3] concerns the target T2, human calcitonin receptor (human, UniProt P30988 25-474).
T2 construct: whole, on cells; Used as membranes prepared from the transfected cells; also called hCTR; hCT
T2 sequence (looked up): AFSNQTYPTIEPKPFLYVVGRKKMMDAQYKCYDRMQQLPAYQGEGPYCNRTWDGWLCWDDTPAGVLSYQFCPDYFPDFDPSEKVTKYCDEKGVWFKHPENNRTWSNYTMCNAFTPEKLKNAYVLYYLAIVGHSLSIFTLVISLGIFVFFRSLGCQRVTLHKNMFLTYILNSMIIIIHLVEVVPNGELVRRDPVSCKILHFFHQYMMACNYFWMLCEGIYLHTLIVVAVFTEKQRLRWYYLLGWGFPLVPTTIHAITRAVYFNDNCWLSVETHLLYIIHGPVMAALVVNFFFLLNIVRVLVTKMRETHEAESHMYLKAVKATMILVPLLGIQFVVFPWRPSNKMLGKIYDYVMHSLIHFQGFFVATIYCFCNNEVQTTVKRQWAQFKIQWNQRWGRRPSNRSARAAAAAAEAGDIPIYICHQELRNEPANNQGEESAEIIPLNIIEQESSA
The test can be described thus: ratio of binding IC50 at human calcitonin receptor to IC50 at human amylin receptor (reference). Summed up: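 Competition binding by SPA uses membrane preparations (35 ng/μL final) in pH 7.4 Hepes buffer with 1 mM CaCl2 and 5 mM MgCl₂. Incubation lasts 120 min at 25° C, and IC₅₀ comes from one-site fitting.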

Numbered stars: 1 amine (or outer) side, 2 acyl side, 3 side chain; on linkers, the order of the positions; unused ones are H or OH. Bridge positions count the residues as written; N and C are the ends. Side chains are listed from the residue outwards. Ends that are not written are not given here. * marks the point of attachment. C20 diacid = O=C(O)CCCCCCCCCCCCCCCCCCC(=O)*; γGlu = O=C(O)[C@H](CCC(=O)[*:2])N[*:1]

B1: N^ε1-[(4S)-4-carboxy-4-(19-carboxynonadecanoylamino)butanoyl]-[Ala14,Arg17,Pro21,Pro27,His34]-h-amylin (peptide)
peptide: K([γGlu-C20 diacid])CNTATCATQRLAAFLRHSSPNFGAIPSSTNVGHNTY-NH2
modifications: disulfide 2-7; N-terminus assumed
SMILES: CC[C@H](C)[C@H](NC(=O)[C@H](C)NC(=O)CNC(=O)[C@H](Cc1ccccc1)NC(=O)[C@H](CC(N)=O)NC(=O)[C@@H]1CCCN1C(=O)[C@H](CO)NC(=O)[C@H](CO)NC(=O)[C@H](Cc1c[nH]cn1)NC(=O)[C@H](CCCNC(=N)N)NC(=O)[C@H](CC(C)C)NC(=O)[C@H](Cc1ccccc1)NC(=O)[C@H](C)NC(=O)[C@H](C)NC(=O)[C@H](CC(C)C)NC(=O)[C@H](CCCNC(=N)N)NC(=O)[C@H](CCC(N)=O)NC(=O)[C@@H](NC(=O)[C@H](C)NC(=O)[C@@H]1CSSC[C@H](NC(=O)[C@@H](N)CCCCNC(=O)CC[C@H](NC(=O)CCCCCCCCCCCCCCCCCCC(=O)O)C(=O)O)C(=O)N[C@@H](CC(N)=O)C(=O)N[C@@H]([C@@H](C)O)C(=O)N[C@@H](C)C(=O)N[C@@H]([C@@H](C)O)C(=O)N1)[C@@H](C)O)C(=O)N1CCC[C@H]1C(=O)N[C@@H](CO)C(=O)N[C@@H](CO)C(=O)N[C@H](C(=O)N[C@@H](CC(N)=O)C(=O)N[C@H](C(=O)NCC(=O)N[C@@H](Cc1c[nH]cn1)C(=O)N[C@@H](CC(N)=O)C(=O)N[C@H](C(=O)N[C@@H](Cc1ccc(O)cc1)C(N)=O)[C@@H](C)O)C(C)C)[C@@H](C)O
notes: Analogue of human amylin; disulfide and C-terminal amide as told for h-amylin; also called compound 93
For B1, the IC50 in the test with rat calcitonin receptor [1] is 131 nM. For the same molecule, the “Ratio rCT/rAmylin binding” value with rat calcitonin receptor [2] amounted to 83.2. In addition, the “Ratio hCT/hAmylin binding” value in test [3] was found to be 101.

B2: N^ε1-[(4S)-4-carboxy-4-(19-carboxynonadecanoylamino)butanoyl]-[Arg14,Arg17,Pro21,Pro27]-h-amylin (peptide)
peptide: K([γGlu-C20 diacid])CNTATCATQRLARFLRHSSPNFGAIPSSTNVGSNTY-NH2
modifications: disulfide 2-7; N-terminus assumed
SMILES: CC[C@H](C)[C@H](NC(=O)[C@H](C)NC(=O)CNC(=O)[C@H](Cc1ccccc1)NC(=O)[C@H](CC(N)=O)NC(=O)[C@@H]1CCCN1C(=O)[C@H](CO)NC(=O)[C@H](CO)NC(=O)[C@H](Cc1c[nH]cn1)NC(=O)[C@H](CCCNC(=N)N)NC(=O)[C@H](CC(C)C)NC(=O)[C@H](Cc1ccccc1)NC(=O)[C@H](CCCNC(=N)N)NC(=O)[C@H](C)NC(=O)[C@H](CC(C)C)NC(=O)[C@H](CCCNC(=N)N)NC(=O)[C@H](CCC(N)=O)NC(=O)[C@@H](NC(=O)[C@H](C)NC(=O)[C@@H]1CSSC[C@H](NC(=O)[C@@H](N)CCCCNC(=O)CC[C@H](NC(=O)CCCCCCCCCCCCCCCCCCC(=O)O)C(=O)O)C(=O)N[C@@H](CC(N)=O)C(=O)N[C@@H]([C@@H](C)O)C(=O)N[C@@H](C)C(=O)N[C@@H]([C@@H](C)O)C(=O)N1)[C@@H](C)O)C(=O)N1CCC[C@H]1C(=O)N[C@@H](CO)C(=O)N[C@@H](CO)C(=O)N[C@H](C(=O)N[C@@H](CC(N)=O)C(=O)N[C@H](C(=O)NCC(=O)N[C@@H](CO)C(=O)N[C@@H](CC(N)=O)C(=O)N[C@H](C(=O)N[C@@H](Cc1ccc(O)cc1)C(N)=O)[C@@H](C)O)C(C)C)[C@@H](C)O
notes: Analogue of human amylin; disulfide and C-terminal amide as told for h-amylin; also called compound 83
B2: in the test with rat calcitonin receptor [1], the IC50 stood at 140 nM. Besides, the “Ratio rCT/rAmylin binding” value with rat calcitonin receptor [2] is 49.7. For the same molecule, the “Ratio hCT/hAmylin binding” value in test [3] is 146.

B3: N^ε1-[(4S)-4-carboxy-4-(19-carboxynonadecanoylamino)butanoyl]-[Arg17,Pro21,Pro27,Arg34]-h-amylin (peptide)
peptide: K([γGlu-C20 diacid])CNTATCATQRLANFLRHSSPNFGAIPSSTNVGRNTY-NH2
modifications: disulfide 2-7; N-terminus assumed
SMILES: CC[C@H](C)[C@H](NC(=O)[C@H](C)NC(=O)CNC(=O)[C@H](Cc1ccccc1)NC(=O)[C@H](CC(N)=O)NC(=O)[C@@H]1CCCN1C(=O)[C@H](CO)NC(=O)[C@H](CO)NC(=O)[C@H](Cc1c[nH]cn1)NC(=O)[C@H](CCCNC(=N)N)NC(=O)[C@H](CC(C)C)NC(=O)[C@H](Cc1ccccc1)NC(=O)[C@H](CC(N)=O)NC(=O)[C@H](C)NC(=O)[C@H](CC(C)C)NC(=O)[C@H](CCCNC(=N)N)NC(=O)[C@H](CCC(N)=O)NC(=O)[C@@H](NC(=O)[C@H](C)NC(=O)[C@@H]1CSSC[C@H](NC(=O)[C@@H](N)CCCCNC(=O)CC[C@H](NC(=O)CCCCCCCCCCCCCCCCCCC(=O)O)C(=O)O)C(=O)N[C@@H](CC(N)=O)C(=O)N[C@@H]([C@@H](C)O)C(=O)N[C@@H](C)C(=O)N[C@@H]([C@@H](C)O)C(=O)N1)[C@@H](C)O)C(=O)N1CCC[C@H]1C(=O)N[C@@H](CO)C(=O)N[C@@H](CO)C(=O)N[C@H](C(=O)N[C@@H](CC(N)=O)C(=O)N[C@H](C(=O)NCC(=O)N[C@@H](CCCNC(=N)N)C(=O)N[C@@H](CC(N)=O)C(=O)N[C@H](C(=O)N[C@@H](Cc1ccc(O)cc1)C(N)=O)[C@@H](C)O)C(C)C)[C@@H](C)O
notes: Analogue of human amylin; disulfide and C-terminal amide as told for h-amylin; also called compound 79
Consider B3, for which, in the test with rat calcitonin receptor [1], the IC50 is 35.5 nM. Moreover, the “Ratio rCT/rAmylin binding” value with rat calcitonin receptor [2] was determined as 21.5. In addition, the “Ratio hCT/hAmylin binding” value in test [3] came out at 46.1.

B4: N^ε1-[(4S)-4-carboxy-4-(19-carboxynonadecanoylamino)butanoyl]-[Arg14,Arg17,Pro21,Pro27,Pro34]-h-amylin (peptide)
peptide: K([γGlu-C20 diacid])CNTATCATQRLARFLRHSSPNFGAIPSSTNVGPNTY-NH2
modifications: disulfide 2-7; N-terminus assumed
SMILES: CC[C@H](C)[C@H](NC(=O)[C@H](C)NC(=O)CNC(=O)[C@H](Cc1ccccc1)NC(=O)[C@H](CC(N)=O)NC(=O)[C@@H]1CCCN1C(=O)[C@H](CO)NC(=O)[C@H](CO)NC(=O)[C@H](Cc1c[nH]cn1)NC(=O)[C@H](CCCNC(=N)N)NC(=O)[C@H](CC(C)C)NC(=O)[C@H](Cc1ccccc1)NC(=O)[C@H](CCCNC(=N)N)NC(=O)[C@H](C)NC(=O)[C@H](CC(C)C)NC(=O)[C@H](CCCNC(=N)N)NC(=O)[C@H](CCC(N)=O)NC(=O)[C@@H](NC(=O)[C@H](C)NC(=O)[C@@H]1CSSC[C@H](NC(=O)[C@@H](N)CCCCNC(=O)CC[C@H](NC(=O)CCCCCCCCCCCCCCCCCCC(=O)O)C(=O)O)C(=O)N[C@@H](CC(N)=O)C(=O)N[C@@H]([C@@H](C)O)C(=O)N[C@@H](C)C(=O)N[C@@H]([C@@H](C)O)C(=O)N1)[C@@H](C)O)C(=O)N1CCC[C@H]1C(=O)N[C@@H](CO)C(=O)N[C@@H](CO)C(=O)N[C@H](C(=O)N[C@@H](CC(N)=O)C(=O)N[C@H](C(=O)NCC(=O)N1CCC[C@H]1C(=O)N[C@@H](CC(N)=O)C(=O)N[C@H](C(=O)N[C@@H](Cc1ccc(O)cc1)C(N)=O)[C@@H](C)O)C(C)C)[C@@H](C)O
notes: Analogue of human amylin; disulfide and C-terminal amide as told for h-amylin; also called compound 65
Regarding B4, the IC50 in the test with rat calcitonin receptor [1] was determined as 108 nM. For the same molecule, the “Ratio rCT/rAmylin binding” value with rat calcitonin receptor [2] came to 93.2. The “Ratio hCT/hAmylin binding” value in test [3] came out at 82.4.

B5: N^ε1-[(4S)-4-carboxy-4-(19-carboxynonadecanoylamino)butanoyl]-[Arg14,Arg17,Pro21,Pro27,Pro31]-h-amylin (peptide)
peptide: K([γGlu-C20 diacid])CNTATCATQRLARFLRHSSPNFGAIPSSTPVGSNTY-NH2
modifications: disulfide 2-7; N-terminus assumed
SMILES: CC[C@H](C)[C@H](NC(=O)[C@H](C)NC(=O)CNC(=O)[C@H](Cc1ccccc1)NC(=O)[C@H](CC(N)=O)NC(=O)[C@@H]1CCCN1C(=O)[C@H](CO)NC(=O)[C@H](CO)NC(=O)[C@H](Cc1c[nH]cn1)NC(=O)[C@H](CCCNC(=N)N)NC(=O)[C@H](CC(C)C)NC(=O)[C@H](Cc1ccccc1)NC(=O)[C@H](CCCNC(=N)N)NC(=O)[C@H](C)NC(=O)[C@H](CC(C)C)NC(=O)[C@H](CCCNC(=N)N)NC(=O)[C@H](CCC(N)=O)NC(=O)[C@@H](NC(=O)[C@H](C)NC(=O)[C@@H]1CSSC[C@H](NC(=O)[C@@H](N)CCCCNC(=O)CC[C@H](NC(=O)CCCCCCCCCCCCCCCCCCC(=O)O)C(=O)O)C(=O)N[C@@H](CC(N)=O)C(=O)N[C@@H]([C@@H](C)O)C(=O)N[C@@H](C)C(=O)N[C@@H]([C@@H](C)O)C(=O)N1)[C@@H](C)O)C(=O)N1CCC[C@H]1C(=O)N[C@@H](CO)C(=O)N[C@@H](CO)C(=O)N[C@H](C(=O)N1CCC[C@H]1C(=O)N[C@H](C(=O)NCC(=O)N[C@@H](CO)C(=O)N[C@@H](CC(N)=O)C(=O)N[C@H](C(=O)N[C@@H](Cc1ccc(O)cc1)C(N)=O)[C@@H](C)O)C(C)C)[C@@H](C)O
notes: Analogue of human amylin; disulfide and C-terminal amide as told for h-amylin; also called compound 63
Take B5: the IC50 in the test with rat calcitonin receptor [1] turned out to be 124 nM. In the test with rat calcitonin receptor [2], the “Ratio rCT/rAmylin binding” value came out at 35.6. Besides, the “Ratio hCT/hAmylin binding” value in test [3] was found to be 157.
